Target: T1, CD8-Stop (UniProt P01732 22-203, limits assumed)
T1 construct: domain: CD8 receptor devoid of cytoplasmic domain; Control expressed in HeLa or 293T cells; also called CD8 protein devoid of cytoplasmic domain; control CD8-Stop protein
Assay: co-immunoprecipitation from 293T cells (anti-CD8 IP, anti-c-myc blot)
Protocol: The direct recognition of Nef by sdAb Nef19 was explored at the cell level by means of coimmuno-precipitation experiments. […] These constructs have been previously described (Janvier et al., 2003a,b; Madrid et al., 2005). The same type of experiment was also carried out on cells coexpressing the sdAb and the CD8 protein devoid of cytoplasmic domain (CD8-Stop) used as a control. 24 h after transfection, the cells were lyzed in a buffer containing 100 mM of (NH₄)₂SO₄, 20 mM of Tris (pH 7.5), 10% of glycerol, 1% of IGEPAL and a cocktail of protease inhibitors (Roche). The cell lyzate (600 μg of total proteins) was incubated for 1 h at 4° C. with 3 μg of the anti-CD8 Ab (32M4, Santa Cruz) and 30 μl of beads coated with protein A-sepharose. The immunoprecipitates were then analyzed by immunoblotting using an anti-CD8 Ab (H160, Santa Cruz) and an anti-c-myc Ab (9E10).

T1 sequence (P01732 22-203 limits assumed): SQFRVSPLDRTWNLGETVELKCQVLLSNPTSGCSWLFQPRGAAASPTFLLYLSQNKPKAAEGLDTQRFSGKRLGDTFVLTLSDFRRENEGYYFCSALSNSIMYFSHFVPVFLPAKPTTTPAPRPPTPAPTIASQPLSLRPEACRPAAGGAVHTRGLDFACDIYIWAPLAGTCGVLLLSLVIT

B1: sdAb Nef19 (VHH)
VHH: EVQLVESGGGLVQPGGSLKLSCAASGSIFRANAMRWYRQAPGKQREWVASVISDDFTDYVDSVRGRFTISKDNAQNTVYLQMNSLKPEDTAVYYCNAQLGGVNYWGQGTQVTVSS
notes: Llama VHH from the immune library; The soluble form carries C-terminal c-myc and 6His tags and is detected with mAb 9E10; also called sdAb Nef19P; sdAb Nef19C
  binding result: no binding
